# Data from US20200338203A1 (Bicycle, published 2020).
# Read-outs that look alike come from different tables or passages of the source. Numbered stars: 1 amine (or outer) side, 2 acyl side, 3 side chain; on linkers, the order of the positions; unused ones are H or OH. Bridge positions count the residues as written; N and C are the ends. Square brackets hold non-standard residues; d marks the D form. Ends that are not written are not given here. AlexaFluor488 = AlexaFluor488 fluorescent dye label; K(FI) = lysine carrying a fluorescein label (FI); K(Fl) = Lys carrying 5(6)-carboxyfluorescein; 1Nal = N[C@@H](Cc1cccc2ccccc12)C(=O)O; TBMB = c1c(C[*:1])cc(C[*:3])cc1C[*:2]; Gly(cPent) = N[C@H](C(=O)O)C1CCCC1; hArg = N=C(N)NCCCC[C@H](N)C(=O)O; Tle = CC(C)(C)[C@H](N)C(=O)O; AF488 = AlexaFluor488 label; Aib = CC(C)(N)C(=O)O; βAla = NCCC(=O)O; Sar = CNCC(=O)O
# T1: Human EphA1 (Human, UniProt P21709 26-547)
# T1 construct: extracellular domain; also called EphA1 (Ecto), Human
# T1 sequence (looked up): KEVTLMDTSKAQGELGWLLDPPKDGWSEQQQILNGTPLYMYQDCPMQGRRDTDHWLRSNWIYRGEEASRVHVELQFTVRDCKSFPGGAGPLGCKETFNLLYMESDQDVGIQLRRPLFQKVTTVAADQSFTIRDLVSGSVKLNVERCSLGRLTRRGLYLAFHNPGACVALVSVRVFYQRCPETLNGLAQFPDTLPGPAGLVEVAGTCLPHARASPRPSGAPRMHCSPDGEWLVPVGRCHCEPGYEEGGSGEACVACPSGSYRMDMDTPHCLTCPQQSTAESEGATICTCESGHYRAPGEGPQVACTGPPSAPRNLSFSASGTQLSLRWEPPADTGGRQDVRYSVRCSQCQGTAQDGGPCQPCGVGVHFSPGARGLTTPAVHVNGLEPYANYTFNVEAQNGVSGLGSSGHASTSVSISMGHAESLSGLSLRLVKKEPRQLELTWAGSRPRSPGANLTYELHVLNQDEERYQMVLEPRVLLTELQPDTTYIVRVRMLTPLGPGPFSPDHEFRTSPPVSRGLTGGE
# T2: rat EphB1 (Rat, UniProt P09759 18-540)
# T2 construct: extracellular domain; also called EphB1 (Ecto), Rat
# T2 sequence (looked up): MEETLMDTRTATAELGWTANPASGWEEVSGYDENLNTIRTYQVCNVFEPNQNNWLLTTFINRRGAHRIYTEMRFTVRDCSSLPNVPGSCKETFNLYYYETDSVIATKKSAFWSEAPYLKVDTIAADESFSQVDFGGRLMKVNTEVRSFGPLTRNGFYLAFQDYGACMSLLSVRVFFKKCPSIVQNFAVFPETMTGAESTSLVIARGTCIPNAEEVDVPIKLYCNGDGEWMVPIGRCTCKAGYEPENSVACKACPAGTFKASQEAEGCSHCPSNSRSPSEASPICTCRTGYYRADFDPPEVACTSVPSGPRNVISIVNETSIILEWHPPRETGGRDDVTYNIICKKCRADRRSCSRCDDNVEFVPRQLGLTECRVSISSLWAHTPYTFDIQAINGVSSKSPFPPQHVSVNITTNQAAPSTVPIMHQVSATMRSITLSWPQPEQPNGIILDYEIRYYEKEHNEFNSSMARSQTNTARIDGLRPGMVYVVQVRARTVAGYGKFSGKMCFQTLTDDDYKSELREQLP
# B1: Compound 45 (peptide)
# peptide: ACPWGPAWCPVNRPGCAGAAA
# modifications: linker 2-9-16 via TBMB
# B2: Compound 1 (peptide)
# peptide: ACMNDWLCSLGWTCA[Sar][Sar][Sar][Sar][Sar][Sar]-{K(Fl)}
# modifications: linker 2-8-14 via TBMB
# B3: Compound 163 (peptide)
# peptide: Ac-[Sar][Sar]A[dD][Gly(cPent)]VTCPWGPFWCPVNRPGC
# modifications: linker 8-15-22 via TBMB
# B4: Compound 66 (peptide)
# peptide: ACPWGPFWCPVNRPGCA
# modifications: N-terminal Fl-G-Sar5 before the entry; three Cys cyclised on TBMB
# notes: bicyclic peptide, fluorescent
# B5: Compound 158 (peptide)
# peptide: Ac-[Sar][Sar]A[dD]VTCPWGPFWCPVNRPGC
# modifications: linker 7-14-21 via TBMB
# B6: Compound 6 (peptide)
# peptide: ACMNDWLCQLGWTCA[Sar][Sar][Sar][Sar][Sar][Sar]-{K(FI)}
# modifications: linker 2-8-14 via TBMB
# B7: Compound 64 (peptide)
# peptide: ACTTGSIWCALQFEPCA
# modifications: linker 2-9-16 via TBMB
# B8: Compound 32 (peptide)
# peptide: ACRNIPTMCPFGPVWCA
# modifications: linker 2-9-16 via TBMB
# B9: Compound 139 (peptide)
# peptide: {AF488-βAla}-[Sar][Sar][Sar][Sar][Sar][Sar][Sar][Sar][Sar][Sar]H[dD]VPCPWGPFWCPVNRPGCA
# modifications: linker 15-22-29 via TBMB
# notes: bicyclic peptide, fluorescent
# B10: Compound 145 (peptide)
# peptide: {AF488-βAla}-[Sar][Sar][Sar][Sar][Sar][Sar][Sar][Sar][Sar][Sar]H[dD]VPCP[1Nal]G[Aib]F[1Nal]CP[Tle]NR[Aib][dD]C
# modifications: linker 15-22-29 via TBMB
# B11: Compound 141 (peptide)
# peptide: {AF488-βAla}-[Sar][Sar][Sar][Sar][Sar][Sar][Sar][Sar][Sar][Sar]H[dD]VPC[Aib][1Nal]G[Aib]F[1Nal]CP[Tle]NR[Aib][dD]C
# modifications: linker 15-22-29 via TBMB
# B12: Compound 68 (peptide)
# peptide: {AlexaFluor488-βAla}-[Sar][Sar][Sar][Sar][Sar][Sar][Sar][Sar][Sar][Sar]ACPWGPFWCPVNRPGC
# modifications: linker 12-19-26 via TBMB
# notes: bicyclic peptide, fluorescent
# B13: Compound 67 (peptide)
# peptide: ACPWGPFWCPVNRPGC
# modifications: N-terminal AlexaFluor488-G-Sar5 before the entry; three Cys cyclised on TBMB
# notes: bicyclic peptide, fluorescent
# B14: Compound 225 (peptide)
# peptide: Ac-[Sar][Sar]H[dD]VPCPWGPFWCPVNRPGC
# modifications: linker 7-14-21 via TBMB
# B15: Compound 147 (peptide)
# peptide: {AF488-βAla}-[Sar][Sar][Sar][Sar][Sar][Sar][Sar][Sar][Sar][Sar]H[dD][Gly(cPent)]PCP[1Nal]G[Aib]F[1Nal]CP[Tle]N[hArg]P[dD]C
# modifications: linker 15-22-29 via TBMB
# B16: Compound 63 (peptide)
# peptide: ACVPQGIWCALQFEPCA
# modifications: linker 2-9-16 via TBMB
# B17: Compound 18 (peptide)
# peptide: ADVTCPWGPFWCPVNRPGCA
# modifications: N-terminal Fl-G-Sar5 before the entry; three Cys cyclised on TBMB
# notes: bicyclic peptide, fluorescent
# B18: Compound 144 (peptide)
# peptide: {AF488-βAla}-[Sar][Sar][Sar][Sar][Sar][Sar][Sar][Sar][Sar][Sar]H[dD]VPCP[1Nal]G[Aib]F[1Nal]CP[Tle]NR[Aib]GC
# modifications: linker 15-22-29 via TBMB
# B19: Compound 262 (peptide)
# peptide: Ac-[Sar][Sar]H[dD]VPCP[1Nal]G[Aib]F[1Nal]CP[Tle]NR[Aib]GC
# modifications: linker 7-14-21 via TBMB
# B20: Compound 139 (peptide)
# peptide: {AF488-βAla}-[Sar][Sar][Sar][Sar][Sar][Sar][Sar][Sar][Sar][Sar]H[dD]VPCPWGPFWCPVNRPGCA
# modifications: linker 15-22-29 via TBMB
# B21: Compound 41 (peptide)
# peptide: ACPWGPAWCPVHGKTCA
# modifications: linker 2-9-16 via TBMB
# Experiments:
# [1] = molecular target: T3, Human EphA2 (Ecto) (Human, UniProt P29317 24-537); assay: FP competition; competitor Compound 66
# T3 construct: extracellular domain
# T3 sequence (P29317 24-537): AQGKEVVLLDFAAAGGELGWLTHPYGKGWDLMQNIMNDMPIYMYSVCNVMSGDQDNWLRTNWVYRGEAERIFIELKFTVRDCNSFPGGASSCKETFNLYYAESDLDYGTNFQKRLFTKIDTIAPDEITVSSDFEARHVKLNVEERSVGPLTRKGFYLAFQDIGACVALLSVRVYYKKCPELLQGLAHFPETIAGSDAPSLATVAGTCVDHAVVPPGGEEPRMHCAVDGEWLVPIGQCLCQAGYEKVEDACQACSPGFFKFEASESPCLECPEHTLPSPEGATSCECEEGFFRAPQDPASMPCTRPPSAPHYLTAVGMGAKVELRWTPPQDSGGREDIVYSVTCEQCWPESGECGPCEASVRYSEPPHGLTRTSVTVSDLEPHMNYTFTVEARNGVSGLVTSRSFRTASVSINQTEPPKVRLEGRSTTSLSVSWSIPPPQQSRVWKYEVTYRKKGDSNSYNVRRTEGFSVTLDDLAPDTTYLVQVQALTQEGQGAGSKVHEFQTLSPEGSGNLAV
# Description: (§1) Peptides without a fluorescent tag were tested in competition with a peptide with a fluorescent tag and a known Kd (Table 2). Peptides were diluted to an appropriate concentration in assay buffer as described in the direct binding assay with a maximum of 5% DMSO, then serially diluted 1 in 2. Five μL of diluted peptide was added to the plate followed by 10 μL of human or mouse EphA2 (Table 1) at a fixed concentration which was dependent on the fluorescent peptide used (Table 2), then 10 μL fluorescent peptide added. Measurements were conducted as for the direct binding assay, however the gain was determined prior to the first measurement.
# [2] = molecular target: T3, Human EphA2 (Ecto); assay: FP competition; competitor Compound 12
# Description: as §1
# [3] = molecular target: T1, Human EphA1; assay: FP direct binding, selectivity
# Description: (§2) The gain used for analysis was determined for each tracer at the end of the 60 minutes where there was no protein in the well. Data was analysed using Systat Sigmaplot version 12.0. mP values were fit to a user defined quadratic equation to generate a Kd value: f=ymin+(ymax−ymin)/Lig*((x+Lig+Kd)/2-sqrt((((x+Lig+Kd)/2)\hat{ }2)−(Lig*x))). “Lig” was a defined value of the concentration of tracer used.
# [4] = molecular target: T4, Mouse EphA2 (Ecto) (Mouse, UniProt Q03145 26-538); assay: FP competition; competitor Compound 18
# T4 construct: extracellular domain; not shown: Fc fusion or C-terminal polyHis
# T4 sequence (Q03145 26-538): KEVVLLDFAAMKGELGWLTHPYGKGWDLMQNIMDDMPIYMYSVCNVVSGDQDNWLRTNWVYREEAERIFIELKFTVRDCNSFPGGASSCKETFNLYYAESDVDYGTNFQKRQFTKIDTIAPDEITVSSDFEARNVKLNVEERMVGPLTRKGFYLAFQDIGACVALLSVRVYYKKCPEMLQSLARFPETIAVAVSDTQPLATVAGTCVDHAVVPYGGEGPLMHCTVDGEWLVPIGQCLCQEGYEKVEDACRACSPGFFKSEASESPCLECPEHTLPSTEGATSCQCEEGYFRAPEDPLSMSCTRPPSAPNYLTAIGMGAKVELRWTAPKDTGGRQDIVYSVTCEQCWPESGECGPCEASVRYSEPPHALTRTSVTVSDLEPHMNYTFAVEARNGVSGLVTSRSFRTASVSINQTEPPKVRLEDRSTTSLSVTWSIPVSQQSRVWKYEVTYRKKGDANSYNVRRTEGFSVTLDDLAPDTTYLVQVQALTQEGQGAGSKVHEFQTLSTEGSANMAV
# [5] = molecular target: T3, Human EphA2 (Ecto); assay: FP competition; competitor Compound 18
# [6] = molecular target: T2, rat EphB1; assay: FP direct binding, selectivity
# Description: as §2
# [7] = molecular target: T3, Human EphA2 (Ecto); assay: FP direct binding
# Description: as §2
# [8] = molecular target: T3, Human EphA2 (Ecto); assay: FP competition; competitor Compound 1
# Description: as §1
# [9] = molecular target: dog EphA2 (Dog, UniProt A0A286R219 28-206); assay: FP direct binding, selectivity
# Description: as §2
# [10] = molecular target: T5, mouse EphA2 (Mouse, UniProt Q03145 26-538); assay: FP direct binding, selectivity
# T5 construct: extracellular domain; C-terminal polyHis; also called EphA2 (Ecto), Mouse
# T5 sequence (Q03145 26-538): as above
# Description: as §2
# [11] = molecular target: rat EphA2 (Rat, UniProt D3ZBN3 27-205); assay: FP direct binding, selectivity
# Description: as §2
# [12] = molecular target: dog EphA2 (Dog); assay: FP direct binding, selectivity
# [13] = molecular target: rat EphA3 (Rat) (UniProt O08680); assay: FP direct binding, selectivity
# Chain of rat EphA3 (Rat) (O08680 21-541): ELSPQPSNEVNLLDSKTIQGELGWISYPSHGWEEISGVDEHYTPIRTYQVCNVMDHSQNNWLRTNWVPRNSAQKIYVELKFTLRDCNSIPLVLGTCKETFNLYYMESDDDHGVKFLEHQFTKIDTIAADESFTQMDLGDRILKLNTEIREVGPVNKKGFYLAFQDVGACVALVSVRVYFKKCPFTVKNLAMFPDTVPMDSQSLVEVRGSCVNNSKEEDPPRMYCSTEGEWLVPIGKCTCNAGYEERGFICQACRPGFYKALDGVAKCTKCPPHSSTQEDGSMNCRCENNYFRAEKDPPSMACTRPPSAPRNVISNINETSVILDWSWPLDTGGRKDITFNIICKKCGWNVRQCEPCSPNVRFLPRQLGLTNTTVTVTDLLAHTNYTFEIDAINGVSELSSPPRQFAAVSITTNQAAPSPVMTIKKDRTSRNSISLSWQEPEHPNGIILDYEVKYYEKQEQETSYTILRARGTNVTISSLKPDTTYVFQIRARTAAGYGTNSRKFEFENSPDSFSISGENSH
# [14] = molecular target: human EphA4 (Human) (UniProt P54764); assay: FP direct binding, selectivity
# Chain of human EphA4 (Human) (P54764 20-547): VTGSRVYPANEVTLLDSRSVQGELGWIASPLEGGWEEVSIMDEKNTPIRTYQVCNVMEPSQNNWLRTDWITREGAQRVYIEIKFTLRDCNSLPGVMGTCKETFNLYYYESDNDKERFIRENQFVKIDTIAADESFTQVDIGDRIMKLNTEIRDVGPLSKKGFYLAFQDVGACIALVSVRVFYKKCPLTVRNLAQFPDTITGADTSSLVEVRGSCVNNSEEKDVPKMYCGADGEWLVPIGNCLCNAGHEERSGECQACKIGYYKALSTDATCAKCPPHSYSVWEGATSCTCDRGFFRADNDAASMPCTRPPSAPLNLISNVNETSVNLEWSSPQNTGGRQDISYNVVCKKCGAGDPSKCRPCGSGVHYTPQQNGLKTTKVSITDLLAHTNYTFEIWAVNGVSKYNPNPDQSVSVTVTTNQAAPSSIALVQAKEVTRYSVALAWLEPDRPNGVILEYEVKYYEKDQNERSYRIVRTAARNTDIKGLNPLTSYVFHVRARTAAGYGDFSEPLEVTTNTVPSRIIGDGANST
# [15] = molecular target: Human & mouse EphA3 (Human & mouse) (UniProt P29320); assay: FP direct binding, selectivity
# Chain of Human & mouse EphA3 (Human & mouse) (P29320 21-541): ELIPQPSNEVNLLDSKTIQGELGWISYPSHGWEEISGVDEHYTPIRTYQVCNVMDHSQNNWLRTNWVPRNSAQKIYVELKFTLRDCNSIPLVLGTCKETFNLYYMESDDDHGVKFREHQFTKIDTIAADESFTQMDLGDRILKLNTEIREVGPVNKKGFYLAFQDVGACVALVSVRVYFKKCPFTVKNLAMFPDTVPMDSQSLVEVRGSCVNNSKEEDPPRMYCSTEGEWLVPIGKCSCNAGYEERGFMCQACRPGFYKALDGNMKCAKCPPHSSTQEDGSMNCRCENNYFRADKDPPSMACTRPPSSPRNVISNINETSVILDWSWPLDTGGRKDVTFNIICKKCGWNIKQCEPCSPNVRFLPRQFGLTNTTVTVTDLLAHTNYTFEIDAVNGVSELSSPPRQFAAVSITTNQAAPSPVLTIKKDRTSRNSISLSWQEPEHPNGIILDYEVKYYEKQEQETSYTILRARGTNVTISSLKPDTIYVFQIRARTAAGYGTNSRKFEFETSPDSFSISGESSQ
# [16] = molecular target: rat & mouse EphA4 (rat & mouse) (UniProt D3ZZK3); assay: FP direct binding, selectivity
# [17] = molecular target: T4, Mouse EphA2 (Ecto); assay: FP direct binding
# [18] = molecular target: T3, Human EphA2 (Ecto); assay: FP direct binding; remark: listed apart in the source
# [19] = molecular target: T3, Human EphA2 (Ecto); assay: FP competition; competitor Compound 18; remark: listed apart in the source
# [20] = molecular target: T4, Mouse EphA2 (Ecto); assay: FP direct binding; remark: listed apart in the source
# Description: as §2
binder,measurement,setting,value
B1,Ki,[1],117 nM
same,Ki,[2],99.2 nM
B2,Kd,[3],1640 nM
B3,Ki,[4],1.74 nM
same,Ki,[5],1.33 nM
B4,Kd,[6],2270 nM
same,Kd,[3],1180 nM
B5,Ki,[4],2.2 nM
same,Ki,[5],2.05 nM
B6,Kd,[7],4.25 nM
B7,Ki,[1],63.4 nM
same,Ki,[2],410 nM
B8,Ki,[8],83.4 nM
B9,Kd,[9],2.17 nM
same,Kd,[10],0.8 nM
same,Kd,[11],0.36 nM
B10,Kd,[12],4.99 nM
same,Kd,[13],297 nM
same,Kd,[14],1.5 µM
same,Kd,[15],129 nM
same,Kd,[16],2.54 µM
same,Kd,[17],3.8 nM
same,Kd,[18],2.17 nM
same,Kd,[6],5420 nM
same,Kd,[10],3.8 nM
same,Kd,[3],7260 nM
same,Kd,[11],1 nM
B11,Kd,[12],13.3 nM
same,Kd,[13],137 nM
same,Kd,[14],238 µM
same,Kd,[16],1.89 µM
same,Kd,[17],6.5 nM
same,Kd,[18],2.65 nM
same,Kd,[10],6.5 nM
same,Kd,[11],2.33 nM
B12,Kd,[9],31.9 nM
same,Kd,[11],15.9 nM
B13,Kd,[9],61.4 nM
same,Kd,[11],26.5 nM
B14,Ki,[4],2.08 nM
same,Ki,[5],1 nM
B15,Kd,[12],3.58 nM
same,Kd,[13],221 nM
same,Kd,[14],7440 µM
same,Kd,[15],82.5 nM
same,Kd,[16],1000 µM
same,Kd,[17],3.44 nM
same,Kd,[18],1.07 nM
same,Kd,[10],3.44 nM
same,Kd,[3],1220 nM
same,Kd,[11],1.15 nM
B16,Ki,[1],82.5 nM
same,Ki,[8],144 nM
same,Ki,[2],92.2 nM
B17,Kd,[9],3.57 nM
same,Kd,[6],1420 nM
same,Kd,[10],4.02 nM
same,Kd,[11],1.72 nM
B18,Kd,[12],4.39 nM
same,Kd,[15],166 nM
same,Kd,[17],2.56 nM
same,Kd,[18],1.04 nM
same,Kd,[6],1440 nM
same,Kd,[10],2.56 nM
same,Kd,[3],1710 nM
same,Kd,[11],1.25 nM
B19,Ki,[4],0.72 nM
same,Ki,[19],0.71 nM
B20,Kd,[20],0.8 nM
same,Kd,[7],0.31 nM
B21,Ki,[8],263 nM
